Biological target: T1, Pgi8Cas13b (Porphyromonas gingivalis ATCC 33277, UniProt B2RL97 1-1119)
T1 sequence: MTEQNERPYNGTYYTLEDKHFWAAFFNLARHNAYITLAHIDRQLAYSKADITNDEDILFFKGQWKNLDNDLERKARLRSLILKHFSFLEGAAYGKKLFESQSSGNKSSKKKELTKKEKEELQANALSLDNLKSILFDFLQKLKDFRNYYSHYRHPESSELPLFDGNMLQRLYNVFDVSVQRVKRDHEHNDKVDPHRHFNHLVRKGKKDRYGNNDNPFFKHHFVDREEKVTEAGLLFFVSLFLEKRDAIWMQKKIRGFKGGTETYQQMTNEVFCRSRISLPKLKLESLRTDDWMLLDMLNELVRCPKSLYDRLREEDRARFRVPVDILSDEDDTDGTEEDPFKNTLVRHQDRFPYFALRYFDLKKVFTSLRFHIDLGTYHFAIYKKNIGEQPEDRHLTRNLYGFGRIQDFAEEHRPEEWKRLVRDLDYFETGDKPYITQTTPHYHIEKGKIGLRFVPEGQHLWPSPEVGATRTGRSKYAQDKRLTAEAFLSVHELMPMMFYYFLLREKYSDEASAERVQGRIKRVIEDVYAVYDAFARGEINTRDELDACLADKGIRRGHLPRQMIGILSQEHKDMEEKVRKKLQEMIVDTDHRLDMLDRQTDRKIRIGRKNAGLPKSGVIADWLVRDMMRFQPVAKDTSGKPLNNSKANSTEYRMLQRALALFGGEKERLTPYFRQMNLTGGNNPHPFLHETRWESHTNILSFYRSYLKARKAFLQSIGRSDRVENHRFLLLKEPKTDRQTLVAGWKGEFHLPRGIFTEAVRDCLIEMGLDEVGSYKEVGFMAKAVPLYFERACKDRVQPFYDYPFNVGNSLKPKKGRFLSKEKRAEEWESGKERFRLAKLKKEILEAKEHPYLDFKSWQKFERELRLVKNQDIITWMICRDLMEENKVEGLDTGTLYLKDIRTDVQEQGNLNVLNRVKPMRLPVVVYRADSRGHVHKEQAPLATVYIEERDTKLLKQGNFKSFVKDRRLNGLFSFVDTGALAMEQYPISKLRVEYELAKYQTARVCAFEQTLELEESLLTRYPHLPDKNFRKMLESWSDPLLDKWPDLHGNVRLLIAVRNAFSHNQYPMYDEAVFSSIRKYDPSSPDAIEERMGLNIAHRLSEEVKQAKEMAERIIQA
Assay: EMSA

B1: Pgi8 crRNA (SP2), Cy5 body-labeled (structured_RNA)
RNA: GCAAGUGGAAUUAAUCUUUUUUCUUCUUUACGUUGGAUCUUCCCUCUAUUCGAAGGGUACACACAAC
Kd: 18 nM

Source: article PMC7495503
